Square brackets hold non-standard residues; d marks the D form. Ends that are not written are not given here. sY = N[C@@H](Cc1ccc(OS(=O)(=O)O)cc1)C(=O)O A value given as a limit tells only on which side of the number the result lay.

This experiment deals with Full-length gp120 from the subtype B YU2 HIV-1 strain (HIV-1, subtype B, strain YU2, UniProt P35961 32-498). Briefly: ITC.

B1: S22 peptide, 22 amino acid tyrosine-sulfated peptide corresponding to the CCR5 N-terminus (peptide)
peptide: MDYQVSSPI[sY]DIN[sY]YTSEPSQK
For the molecule B1, the dissociation constant (Kd) is at least 1 mM.

The record behind these values is paper PMC2700308 (Biochemistry, 2009).
